The values that follow come from patent US20260042853A1 (REGENTS OF THE UNIVERSITY OF COLORADO A BODY CORPORATE, published 2026).

The target in the assay is T1, CCR4-IL2 bispecific immunotoxin.
T1 construct: also called CCR4-IL2 IT; CCR4-IL2 immunotoxin
Put plainly: flow cytometry, MFI against concentration of biotinylated immunotoxin on CD25+CCR4+ Hut102/6TG cells, nonlinear least squares fit.

B1: human CD25 and human CCR4 together on human CD25+CCR4+ T-cell lymphoma cell line Hut 102/6TG (other)
chain 1: ELCDDDPPEIPHATFKAMAYKEGTMLNCECKRGFRRIKSGSLYMLCTGNSSHSSWDNQCQCTSSATRNTTKQVTPQPEEQKERKTTEMQSPMQPVDQASLPGHCREPPPWENEATERIYHFVVGQMVYYQCVQGYRALHRGPAESVCKMTHGKTRWTQPQLICTGEMETSQFPGEEKPQASPEGRPESETSCLVTTTDFQIQTEMAATMETSIFTTEYQVAVAGCVFLLISVLLLSGLTWQRRQRKSRRTI
chain 2: MNPTDIADTTLDESIYSNYYLYESIPKPCTKEGIKAFGELFLPPLYSLVFVFGLLGNSVVVLVLFKYKRLRSMTDVYLLNLAISDLLFVFSLPFWGYYAADQWVFGLGLCKMISWMYLVGFYSGIFFVMLMSIDRYLAIVHAVFSLRARTLTYGVITSLATWSVAVFASLPGFLFSTCYTERNHTYCKTKYSLNSTTWKVLSSLEINILGLVIPLGIMLFCYSMIIRTLQHCKNEKKNKAVKMIFAVVVLFLGFWTPYNIVLFLETLVELEVLQDCTFERYLDYAIQATETLAFVHCCLNPIIYFFLGEKFRKYILQLFKTCRGLFVLCQYCGLLQIYSADTPSSSYTQSTMDHDLHDAL
notes: whole, on cells; Not a complex: two separate receptors on the same cell; also called human CD25+CCR4+ Hut102/6TG; CD25+CCR4+ CTCL Hut102/6TG
In turn, B1 came in with a Kd of 19.7 nM. This counts as double-digit nanomolar.
